Laboratory results taken from patent publication US10766960 (dated 2020).
Substitutions are numbered along the chain they refer to.

T1: FcgRIIa R (human, UniProt P12318)
T1 chain: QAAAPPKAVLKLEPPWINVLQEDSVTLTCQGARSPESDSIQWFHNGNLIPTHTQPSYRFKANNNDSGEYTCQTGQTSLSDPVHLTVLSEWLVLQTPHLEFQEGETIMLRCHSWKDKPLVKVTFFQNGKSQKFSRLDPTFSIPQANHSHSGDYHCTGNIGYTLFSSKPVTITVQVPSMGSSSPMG

T2: FcgRIa (human, UniProt P12314)
T2 chain: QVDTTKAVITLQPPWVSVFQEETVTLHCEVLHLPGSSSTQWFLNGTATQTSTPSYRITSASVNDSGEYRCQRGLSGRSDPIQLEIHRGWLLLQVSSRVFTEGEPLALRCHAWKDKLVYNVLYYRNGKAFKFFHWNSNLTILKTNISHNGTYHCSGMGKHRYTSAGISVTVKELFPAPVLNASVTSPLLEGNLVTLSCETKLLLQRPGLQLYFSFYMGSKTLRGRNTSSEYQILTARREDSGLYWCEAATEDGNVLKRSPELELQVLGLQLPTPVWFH

T3: FcgRIIa H (human, UniProt P12318)
T3 chain: T1 chain with R134H

T4: FcgRIIb (human, UniProt P31994)
T4 chain: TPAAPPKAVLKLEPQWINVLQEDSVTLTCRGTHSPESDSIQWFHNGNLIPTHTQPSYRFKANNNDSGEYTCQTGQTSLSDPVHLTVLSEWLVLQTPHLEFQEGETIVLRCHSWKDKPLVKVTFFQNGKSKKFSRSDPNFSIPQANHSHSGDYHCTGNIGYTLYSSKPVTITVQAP

B1: H240-Kn202/H240-Hl068/L73-k0 (antibody)
chain 1: QDQLVQSGAEVKKPGASVKVSCKASGFNIKDTYIQWVRQAPGQGLEWMGRIDPLRKQTKYREKFEGRVTITADTSTNTAYMELSSLRSEDTAVYYCVRSGREFDYWGQGTLVTVSSASTKGPSVFPLAPSSKSTSGGTAALGCLVKDYFPEPVTVSWNSGALTSGVHTFPAVLQSSGLYSLSSVVTVPSSSLGTQTYICNVNHKPSNTKVDKKVEPKSCDKTHTCPPCPAPEEQWGPMVFLFPPKPKDTLMISRTPEVTCVVVDVSDEEPEVKFNWYVDGVEVHNAKTKPREEQYNATYRVVSVLTVLHQDWLNGKEYKCKVSNKALPAPIEKTISKAKGQPREPQVCTLPPSRDELTKNQVSLWCLVKGFYPSDIAVEWESNGQPENNYKTTPPVLDSDGSFFLYSKLTVDKSRWQQGNVFSCSVMHEALHNHYTQKSLSLSP
chain 2: QDQLVQSGAEVKKPGASVKVSCKASGFNIKDTYIQWVRQAPGQGLEWMGRIDPLRKQTKYREKFEGRVTITADTSTNTAYMELSSLRSEDTAVYYCVRSGREFDYWGQGTLVTVSSASTKGPSVFPLAPSSKSTSGGTAALGCLVKDYFPEPVTVSWNSGALTSGVHTFPAVLQSSGLYSLSSVVTVPSSSLGTQTYICNVNHKPSNTKVDKKVEPKSCDKTHTCPPCPAPELLGGPSVFLFPPKPKDTLMISRTPEVTCVVVDVSHEEPEVKFNWYVDGVEVHNAKTKPREEQYNSTYRVVSVLTVLHQDWLNGKEYKCKVSNDALPKPIEETISKAKGQPREPQVYTLPPSRCELTKNQVSLSCAVKGFYPSDIAVEWESNGQPENNYKTTPPVLDSDGSFFLVSKLTVDKSRWQQGNVFSCSVMHEALHNHYTQKSLSLSP
chain 3: DIQMTQSPSSLSASVGDRVTITCRASQDIHKYIAWYQQKPGQAPRLLIQYTSTLQPGVPSRFSGSGSGTDYTFTISSLQPEDIATYYCLQYEQLRTFGGGTKVEIKRTVAAPSVFIFPPSDEQLKSGTASVVCLLNNFYPREAKVQWKVDNALQSGNSQESVTEQDSKDSTYSLSSTLTLSKADYEKHKVYACEVTHQGLSSPVTKSFNRGEC
B2: H240-Kn202/H240-Hl210/L73-k0 (antibody)
chain 1: B1 chain 1
chain 2: B1 chain 2 with K329A
chain 3: B1 chain 3
B3: H240-Kn231/H240-Hl068/L73-k0 (antibody)
chain 1: B1 chain 1 with E233I, Q234Y, M238I, E269D, A326D
chain 2: B1 chain 2
chain 3: B1 chain 3
B4: H240-Kn228/H240-Hl214/L73-k0 (antibody)
chain 1: B1 chain 1 with E233D, M238I
chain 2: B1 chain 2 with K329F
chain 3: B1 chain 3
B5: H240-Kn226/H240-Hl214/L73-k0 (antibody)
chain 1: B1 chain 1 with E233F, M238I
chain 2: B1 chain 2 with K329F
chain 3: B1 chain 3
B6: H240-Kn235/H240-Hl068/L73-k0 (antibody)
chain 1: B1 chain 1 with E233F, Q234Y, M238I, E269D, A326D
chain 2: B1 chain 2
chain 3: B1 chain 3
B7: H240-Kn203/H240-Hl210/L73-k0 (antibody)
chain 1: B1 chain 1 with E233F, Q234Y, E269D, A326D
chain 2: B1 chain 2 with K329A
chain 3: B1 chain 3

Legend:
Assay in all cases: SPR
FcgRIIa R = molecular target: T1, FcgRIIa R
FcgRIa = molecular target: T2, FcgRIa
FcgRIIIa V = FcgRIIIa V (human, UniProt P08637)
FcgRIIa H = molecular target: T3, FcgRIIa H
FcgRIIb = molecular target: T4, FcgRIIb
FcgRIIIa F = FcgRIIIa F (human, UniProt P08637)
FcgRIIIa F, sequence (P08637 17-208): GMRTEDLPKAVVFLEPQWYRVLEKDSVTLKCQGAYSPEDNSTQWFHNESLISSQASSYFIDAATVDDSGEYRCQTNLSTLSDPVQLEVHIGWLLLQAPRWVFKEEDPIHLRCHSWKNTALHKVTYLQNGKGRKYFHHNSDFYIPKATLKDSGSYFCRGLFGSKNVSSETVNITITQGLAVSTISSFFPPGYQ

FcgRIIIa V, sequence (P08637 17-208 F176V): as the sequence (P08637 17-208) above, with F160V counted along it

Binder	Kd (FcgRIIa R)	Kd (FcgRIa)	Kd (FcgRIIIa V)	Kd (FcgRIIa H)	Kd (FcgRIIb)	Kd (FcgRIIIa F)
B1	200 nM	0.4 nM	0.66 nM	120 nM	1400 nM	2.5 nM
B2	320 nM	0.17 nM	0.53 nM	230 nM	2200 nM	3.3 nM
B3	8.9 nM	0.18 nM	0.73 nM	16 nM	120 nM	2.9 nM
B4	320 nM	0.12 nM	0.77 nM	270 nM	2300 nM	1.9 nM
B5	360 nM	0.089 nM	0.77 nM	160 nM	3400 nM	1.9 nM
B6	23 nM	0.15 nM	0.87 nM	37 nM	220 nM	2.7 nM
B7	56 nM	0.16 nM	0.45 nM	93 nM	300 nM	3 nM
